According to the supplement of paper PMC12855868:

B1: library; numbered along this chain (parent)
chain: MAAAGGARLLRAASAVLGGPAGRWLHHAGSRAGSSGLLRNRGPGGSAEASRSLSVSARARSSSEDKITVHFINRDGETLTTKGKVGDSLLDVVVENNLDIDGFGACEGTLACSTCHLIFEDHIYEKLDAITDEENDMLDLAYGLTDRSRLGCQICLTKSMDNMTVRVPETVADARQSIDVGKTS

Variants of: B1
Experiment: scaled log2 fold change in cell abundance, elesclomol vs control (0 = silent mean, 1 = nonsense mean) (scaled log2 ratio); higher = higher viability under elesclomol (loss of FDX1 cuproptosis function)
Details: glucose 10 mM
[1] = with ABC1 FDX1 KO, elesclomol 5 nM, 14 days
[2] = with HEK293T FDX1 KO, elesclomol 40 nM, 11 days
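Note: variant abundance is its share of total variant reads in each endpoint sample, from next-generation sequencing of the integrated ORF PCR-amplified out of genomic DNA.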

Variant	scaled log2 fold change [1]	scaled log2 fold change [2]
V165G	0.475	0.411
V165E	1.06	1.35
V165M	-0.123	-0.424
N162W	0.1	0.831
N162G	-0.601	
N162T	-0.0302	0.362
N162E	0.0612	0.838
N162R	0.34	-0.871
N162K	-0.0702	0.386
N162L	-0.0365	-0.341
N162S	0.162	
N162Q	0.14	-1.17
N162F	0.167	-0.244
N162V	0.0601	0.0858
N162P	0.182	-0.234
N162Y	0.0965	0.0713
N162I	-0.0298	-0.611
N162M	0.128	-0.13
N162D	-0.354	0.0725
N162H	-0.203	0.208
N162C	-0.275	0.0594
N162A	0.23	0.844
K158G	-0.426	-0.842
K158A	-0.146	0.138

Variant	scaled log2 fold change [1]	scaled log2 fold change [2]
K158D	0.233	0.95
K158Y	0.0178	-1.33
K158F	0.241	0.189
K158H	0.174	-0.704
K158Q	-0.363	-0.446
K158E	-0.265	0.159
K158N	-0.716	-0.562
K158T	-0.0261	0.646
K158I	-0.0888	-0.515
K158W	0.161	-0.562
K158V	0.0943	-0.343
K158R	0.0874	-0.484
K158S	0.23	-0.645
K158M	0.185	-0.505
K158P	0.0465	0.515
K158L	0.172	-0.122
K158C	0.225	0.192
M163W	0.598	0.247
M163V	-0.168	0.941
M163Y	0.547	-0.538
M163E	0.522	0.691
M163K	0.823	0.16
M163N	0.51	0.528
M163L	0.385	0.864

Variant	scaled log2 fold change [1]	scaled log2 fold change [2]
M163S	-0.173	0.99
M163C	-0.512	0.319
M163R	0.657	-0.245
M163H	0.707	0.257
M163D	1.16	0.514
M163A	-0.185	
M163Q	0.357	-0.237
M163T	-0.131	0.00152
M163F	0.518	-0.42
M163G	0.325	-0.225
M163I	0.122	0.861
M163P	0.859	0.441
T164M	-0.076	-0.072
T164P	0.508	-0.0295
T164V	0.342	1.31
T164I	-0.259	-0.338
T164E	-0.00918	0.119
T164N	0.361	1.04
T164C	0.25	0.194
T164Y	-1.38	0.173
T164S	-0.253	0.99
T164L	-0.159	-0.224
T164D	0.108	0.818
T164F	0.0235	-0.4

Variant	scaled log2 fold change [1]	scaled log2 fold change [2]
T164Q	-0.171	
T164A	0.408	0.0905
T164G	0.367	-0.293
T164R	-0.0678	-0.0374
T164K	-0.0707	0.0715
T164H	0.213	-0.0955
T164W	-0.403	-0.13
L156N	0.8	0.347
L156P	0.268	0.446
L156A	0.194	-1
L156C	0.353	0.332
L156K	1.05	1.71
L156M	-0.318	-0.383
L156D	1.12	0.926
L156V	-0.38	0.664
L156G	0.709	0.904
L156E	1.11	1.53
L156H	1.07	1.03
L156W	1.06	1.36
L156Q	0.697	0.562
L156I	-0.0958	-0.948
L156T	0.139	0.0718
L156S	0.388	0.852
L156F	0.599	-0.036

Variant	scaled log2 fold change [1]	scaled log2 fold change [2]
L156Y	1.07	0.941
L156R	1.06	1.1
S159H	-0.58	0.214
S159Q	-0.52	
S159N	0.273	-0.128
S159G	-1.03	-0.767
S159E	-0.499	-0.34
S159I	-0.459	0.0583
S159F	-0.798	0.523
S159R	-0.282	0.159
S159W	0.0873	0.215
S159D	-1.07	-0.414
S159P	-1.13	-0.284
S159K	0.382	-0.162
S159T	-0.475	0.754
S159V	0.225	0.738
S159A	0.168	-0.0471
S159C	0.095	-0.0429
S159Y	-0.0652	-0.463
S159M	-0.149	-0.209
S159L	-0.241	0.847
